Experimental findings from patent US20230265215A1 (OMEROS, published 2023) are described below.

One test addresses T1, C1r (human, UniProt P00736 18-705, limits assumed).
T1 construct: Species read from 'Recombinant human MASP-2 or C1r, C1s, CFD, MASP-1 and MASP-3'
T1 sequence (looked up): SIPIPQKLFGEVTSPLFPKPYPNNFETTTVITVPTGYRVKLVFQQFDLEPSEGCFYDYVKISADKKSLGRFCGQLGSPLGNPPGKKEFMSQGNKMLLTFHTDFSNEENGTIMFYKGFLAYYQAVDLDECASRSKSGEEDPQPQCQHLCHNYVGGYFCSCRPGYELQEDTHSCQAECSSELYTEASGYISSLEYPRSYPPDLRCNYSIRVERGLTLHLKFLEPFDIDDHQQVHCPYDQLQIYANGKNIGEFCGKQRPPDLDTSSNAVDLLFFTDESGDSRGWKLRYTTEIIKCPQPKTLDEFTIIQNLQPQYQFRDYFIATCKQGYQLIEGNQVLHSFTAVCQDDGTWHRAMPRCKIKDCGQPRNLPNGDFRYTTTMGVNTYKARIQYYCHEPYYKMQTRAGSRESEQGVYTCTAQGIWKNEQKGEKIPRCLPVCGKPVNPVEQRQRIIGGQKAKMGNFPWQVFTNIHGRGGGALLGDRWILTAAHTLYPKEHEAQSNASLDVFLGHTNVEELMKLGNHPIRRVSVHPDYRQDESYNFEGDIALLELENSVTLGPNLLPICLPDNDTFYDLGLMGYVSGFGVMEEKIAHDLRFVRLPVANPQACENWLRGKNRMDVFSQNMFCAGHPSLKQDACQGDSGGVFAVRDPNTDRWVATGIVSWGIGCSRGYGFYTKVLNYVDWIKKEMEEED
The experiment in a line: solid phase ELISA, immobilized protease, apparent KD. The source says: The apparent dissociation constant (KD) was estimated by nonlinear regression using a 4-parameter logistic model.
For orientation: ELISA stands for enzyme-linked immunosorbent assay.

Test [1] has as its target T2, human MASP-2 (CCP1-CCP2-SP fragment) (human, UniProt O00187 287-686, limits assumed).
T2 construct: also called human MASP-2 (CCP1/2/SP fragment); hMASP-2-CCP1-CCP2-SP
The experiment in a line: solid phase ELISA, plate coated with human MASP-2 (CCP1-CCP2-SP fragment), bound mAb detected with goat anti-human IgG-HRP, OD450. The method, then: To measure binding of the 26 purified recombinant MASP-2 antibodies to human MASP-2 (CCP1-CCP2-SP fragment), a solid phase ELISA assay was carried out as follows. A MaxiSorp ELISA plate was coated with human MASP-2 (CCP1/2/SP fragment) at 1.0 μg/mL in carbonate/bi-carbonate buffer overnight at 4° C. […] The plate was washed (PBS-T, 0.05%) and a detection antibody was added (goat anti-human IgG-HRP) for one hour at room temperature. After another wash (PBS-T, 0.05%) the plate was developed (5 minutes) with OPT EIA TMB (BD Biosciences #555214). Absorbance reading at A450 was measured using the Spectramax M5e plate reader.
A solid phase ELISA assay was carried out to measure binding of the three selected MASP-2 inhibitory antibodies to human MASP-2 (CCP1-CCP2-SP fragment), as described in Example 1.

Bounds are passed on as bounds.

T2 sequence (O00187 287-686 limits assumed): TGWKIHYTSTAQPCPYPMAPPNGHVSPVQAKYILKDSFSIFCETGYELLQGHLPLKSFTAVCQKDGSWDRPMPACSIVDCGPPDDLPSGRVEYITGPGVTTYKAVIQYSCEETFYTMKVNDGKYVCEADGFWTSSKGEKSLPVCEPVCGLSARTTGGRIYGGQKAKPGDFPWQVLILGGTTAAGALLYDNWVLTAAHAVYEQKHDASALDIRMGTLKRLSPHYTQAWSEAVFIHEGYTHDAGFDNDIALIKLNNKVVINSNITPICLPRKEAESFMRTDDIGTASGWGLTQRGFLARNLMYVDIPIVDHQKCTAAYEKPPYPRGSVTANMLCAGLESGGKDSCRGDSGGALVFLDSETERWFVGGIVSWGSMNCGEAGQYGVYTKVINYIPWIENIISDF

B1: mAb OMS858 (humanized anti-MASP-2 antibody) (antibody, V domains shown)
VH: QVQLVQSGAEVKKPGASVKVSCKASGYTFTNHHMHWLRQAPGQGLEWIGDIDASDSETHYIEKFKDRATLTIDKSSSTAYMELSSLRSEDTAVYYCARGDITTTLRYFDVWGQGTLVTVSS
VL: DIQLTQSPSSLSASVGDRVTITCSASSSVRYMYWYQQKPGKAPKLLIYDTSNLASGVPSRFSGSGSGTDNTLTISSLQPEDFATYYCQQWSSYPLTFGQGTKVEIKR
notes: also called antibody OMS858; biotinylated OMS858
As a reminder, the EC50 (read off the curve) is the concentration that produces a half-maximal response. A lower EC50 (read off the curve) goes with a more potent agent. For the molecule B1, the Kd with C1r was over 100 µg/mL. Further, in test [1], the “EC50 (read off the curve)” value was about 200 pM.
